Legend:
[1] = target: T1, Pex5 (full-length yeast Pex5, 1-612), His-Sumo cleaved off (Saccharomyces cerevisiae, UniProt P35056 1-612); experiment: cryo-EM structure
T1 sequence (looked up): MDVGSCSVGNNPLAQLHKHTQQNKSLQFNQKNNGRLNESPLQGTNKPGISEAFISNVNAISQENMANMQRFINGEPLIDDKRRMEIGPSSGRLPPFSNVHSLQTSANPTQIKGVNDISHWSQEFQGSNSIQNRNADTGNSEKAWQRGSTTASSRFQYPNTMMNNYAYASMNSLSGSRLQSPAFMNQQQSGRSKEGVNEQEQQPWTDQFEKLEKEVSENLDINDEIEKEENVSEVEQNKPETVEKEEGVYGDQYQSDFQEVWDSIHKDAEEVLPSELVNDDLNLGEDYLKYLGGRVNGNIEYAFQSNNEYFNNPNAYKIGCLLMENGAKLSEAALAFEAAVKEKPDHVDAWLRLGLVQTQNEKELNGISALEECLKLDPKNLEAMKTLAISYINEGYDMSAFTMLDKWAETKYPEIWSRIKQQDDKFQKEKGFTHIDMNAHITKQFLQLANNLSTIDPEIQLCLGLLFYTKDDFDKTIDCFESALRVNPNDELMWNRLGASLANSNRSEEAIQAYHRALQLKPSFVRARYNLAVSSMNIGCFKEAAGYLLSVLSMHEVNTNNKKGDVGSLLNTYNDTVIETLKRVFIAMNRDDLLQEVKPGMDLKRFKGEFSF

cryo-EM structure = target: the molecule itself; experiment: cryo-EM structure

B1: FLAG-Eci1 (yeast delta3, delta2-Enoyl-CoA Isomerase 1) (enzyme, Saccharomyces cerevisiae (yeast), UniProt Q05871 1-280, looked up)
chain: MSQEIRQNEKISYRIEGPFFIIHLMNPDNLNALEGEDYIYLGELLELADRNRDVYFTIIQSSGRFFSSGADFKGIAKAQGDDTNKYPSETSKWVSNFVARNVYVTDAFIKHSKVLICCLNGPAIGLSAALVALCDIVYSINDKVYLLYPFANLGLITEGGTTVSLPLKFGTNTTYECLMFNKPFKYDIMCENGFISKNFNMPSSNAEAFNAKVLEELREKVKGLYLPSCLGMKKLLKSNHIDAFNKANSVEVNESLKYWVDGEPLKRFRQLGSKQRKHRL
B1 was tested, and the “stoichiometry N” value [1] was 6 Eci1 per Pex5 and the “stoichiometry N” value (cryo-EM structure) was 6.

Source: article doi:10.1101/2024.06.02.597006 (bioRxiv, 2024)
